Data published in paper PMC12241602.

Each substance was assayed against His6-MadB (class I lantibiotic dehydratase MadB) (Clostridium sp. Maddingley) (assay: ITC; 200 uM leader variant in the syringe titrated into 20 uM MadB dimer in the cell, 20 injections of 2 uL, 25 °C, 50 mM HEPES, 500 mM NaCl, pH 7.5).
With “MadL3 (leader peptide of MadA with the first ten residues of the core peptide)” the Kd was 150 nM and the stoichiometry N (LP per MadB dimer) was 1.
“MadL2 (leader peptide of MadA with the first five residues of the core peptide)” showed a Kd of 320 nM and a stoichiometry N (LP per MadB dimer) of 1.
“MadL1 (isolated leader peptide of maddinglicin A)” was tested, and the Kd was 410 nM and the stoichiometry N (LP per MadB dimer) was 1.

The substances below were run against MadB, class I lantibiotic dehydratase of maddinglicin (His6-MadB) (Clostridium sp. Maddingley) (assay: ITC; leader variant (200 µM, syringe, 20 injections of 2 µL) titrated into MadB (20 µM of the dimer, cell); 25 °C; 50 mM HEPES, 500 mM NaCl, pH 7.5; N counts leader peptide per MadB dimer; at least triplicate, error S.D.).
“MadL1, isolated leader peptide of maddinglicin A (MadA), residues -23 to -1” was tested, and the stoichiometry N was 1.21.
“MadL3, leader peptide of maddinglicin A with the first ten residues of the core peptide, residues -23 to +10” was tested, and the stoichiometry N was 0.97.
“MadL2, leader peptide of maddinglicin A with the first five residues of the core peptide, residues -23 to +5” gave a stoichiometry N of 0.89.
For “MadL2_VSVS, MadL2 with the lysines K-12 and K-10 of the VKVK motif changed to serine (peptide)”, the stoichiometry N was 1.12.
